# Data taken from patent US20200157223A1.
# Target: CD47 on the cell surface (A431, Raji, SKBR-3, NCI-H441, NK92MI-CD16a cells) (human) (UniProt Q08722)
# Test: cell-based or functional assay
# Chain of Anti-PD-L1(12A4)-Fc1-D1-D2-Fc2 (bispecific antibody) (chain): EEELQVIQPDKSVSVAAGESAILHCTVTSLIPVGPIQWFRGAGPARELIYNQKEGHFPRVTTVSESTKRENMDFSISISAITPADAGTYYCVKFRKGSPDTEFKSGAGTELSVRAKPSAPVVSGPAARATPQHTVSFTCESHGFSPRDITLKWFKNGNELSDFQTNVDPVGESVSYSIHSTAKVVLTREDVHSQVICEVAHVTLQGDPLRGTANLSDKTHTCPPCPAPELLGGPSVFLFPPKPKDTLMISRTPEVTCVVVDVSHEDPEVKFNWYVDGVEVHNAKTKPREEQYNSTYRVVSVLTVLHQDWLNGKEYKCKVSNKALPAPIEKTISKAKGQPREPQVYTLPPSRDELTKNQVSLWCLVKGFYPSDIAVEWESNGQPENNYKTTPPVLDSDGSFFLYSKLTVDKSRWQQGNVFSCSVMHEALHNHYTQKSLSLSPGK
# Chain of Anti-PD-L1(12A4)-Fc1-D1-Fc2 (bispecific antibody) (chain): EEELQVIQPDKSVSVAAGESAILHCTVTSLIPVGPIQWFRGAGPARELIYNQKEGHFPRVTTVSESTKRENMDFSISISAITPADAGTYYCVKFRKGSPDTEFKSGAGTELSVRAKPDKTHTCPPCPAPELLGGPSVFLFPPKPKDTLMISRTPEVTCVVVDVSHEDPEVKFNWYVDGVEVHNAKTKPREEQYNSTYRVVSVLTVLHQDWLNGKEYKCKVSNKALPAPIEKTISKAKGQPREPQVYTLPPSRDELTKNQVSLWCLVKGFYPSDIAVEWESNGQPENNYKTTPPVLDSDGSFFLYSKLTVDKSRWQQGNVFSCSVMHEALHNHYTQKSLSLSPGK
# Chain of Anti-PD-L1(12A4)-Fc1-D1-D2-D3-Fc2 (bispecific antibody) (chain): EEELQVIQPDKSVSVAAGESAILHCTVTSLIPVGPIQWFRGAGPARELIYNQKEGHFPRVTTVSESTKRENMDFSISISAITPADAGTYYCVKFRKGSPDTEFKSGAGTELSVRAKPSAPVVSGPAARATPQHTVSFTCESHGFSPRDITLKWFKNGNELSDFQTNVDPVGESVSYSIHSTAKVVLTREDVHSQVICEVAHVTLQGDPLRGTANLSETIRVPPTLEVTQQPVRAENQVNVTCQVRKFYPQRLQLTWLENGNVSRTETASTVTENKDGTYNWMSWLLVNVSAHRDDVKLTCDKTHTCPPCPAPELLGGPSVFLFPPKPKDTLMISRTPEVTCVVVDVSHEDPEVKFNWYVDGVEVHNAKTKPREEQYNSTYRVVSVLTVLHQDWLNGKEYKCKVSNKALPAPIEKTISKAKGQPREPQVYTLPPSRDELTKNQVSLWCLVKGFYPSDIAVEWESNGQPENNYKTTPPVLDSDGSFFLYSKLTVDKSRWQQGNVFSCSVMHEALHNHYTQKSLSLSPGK
row,Substance,"toxic side effects caused by NK cells (ADCC on NK92MI-CD16a cells), reduction against the D1^m proteins [fold]"
1,Anti-PD-L1(12A4)-Fc1-D1-D2-D3-Fc2 (bispecific antibody),> 1000
2,Anti-PD-L1(12A4)-Fc1-D1-Fc2 (bispecific antibody),> 1000
3,Anti-PD-L1(12A4)-Fc1-D1-D2-Fc2 (bispecific antibody),> 1000
